Article PMC4234207

Biological target: T1, GST-FKH-FoxA2 (Rattus norvegicus (rat; cloned from genomic DNA)) (UniProt P32182)
T1 sequence (P32182 145-290, looked up): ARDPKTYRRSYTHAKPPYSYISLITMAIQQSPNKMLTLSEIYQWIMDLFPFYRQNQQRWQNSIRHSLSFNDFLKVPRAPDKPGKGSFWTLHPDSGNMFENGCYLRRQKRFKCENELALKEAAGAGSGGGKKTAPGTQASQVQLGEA
Experiment: EMSA and self-competition
Settings: reference probe; 25 mM HEPES pH 7.6, 150 mM KCl, 0.2 mM EDTA, 0.2 mM EGTA, 10% glycerol, 1 mM DTT, 3 ug protein, 1 ng 32P-TTR probe, 2/5/20 ng competitor, on ice 15 min; 4% …

Sequence “CAGTCGAGTTGACTAAGTCAATAATCAGAATCAGTCG (double strand) [TTR]” has a binding signal (EMSA score (TTR=1)) of 1.
